Data set [1] concerns the target T1, ZBP1 KH3-KH4 (ZBP1KH34) (Gallus gallus, UniProt O42254 404-561). The experiment in a line: EMSA.
In data set [2] the target is T1, ZBP1 KH3-KH4 (ZBP1KH34). The experiment in a line: EMSA. This is another data set of the same source. Background: Mobility shift assays separate free from complexed probe on a gel.

Where two headings read alike, the source gives them in different places.

T1 sequence (O42254 404-561): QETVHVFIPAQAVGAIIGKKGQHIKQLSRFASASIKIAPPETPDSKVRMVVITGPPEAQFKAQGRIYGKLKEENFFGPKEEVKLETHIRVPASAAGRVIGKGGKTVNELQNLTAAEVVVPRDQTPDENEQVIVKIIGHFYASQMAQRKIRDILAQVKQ

B1: B oligonucleotide: zipcode m6A site 1202 (GGm6ACU) (ssRNA)
RNA: ACCGGACUGUUACCAACACCCACACCCC
modifications: m6A at position 6
For B1, the binding result with ZBP1 KH3-KH4 (ZBP1KH34) [1] is “binds”.

B2: A oligonucleotide: chicken beta-actin zipcode unmodified (ssRNA)
RNA: ACCGGACUGUUACCAACACCCACACCCC
As for B2, the binding result with ZBP1 KH3-KH4 (ZBP1KH34) [2] is “binds”.

The values above are taken from article PMC10187669.
